These binders were tested against T1, HLA-A2.1 molecules on T2 cells (human) (assay: HLA class I stabilization assay on T2 cells, MA2.1 staining, flow cytometry).
T1 construct: MHC class I molecule on the surface of T2 cells; also called HLA-A*0201
Experimental: HLA Class I stabilization assays. Peptide-induced stabilization of HLA-A2.1 molecules on T2 cells was done as previously described (Zeh et al., Hum. Immunol., 39(2), 79-86 (1994)). 2×10⁵ T2 cells were incubated with […] of the indicated synthetic peptides in […] human B2m (Calbiochem, La Jolla, Calif.) for 18-20 hours at room temperature. The cells were then stained with the HLA-A2.1-specific antibody, MA2.1, for 45 minutes, washed with FACS Buffer (PBS, 5% FBS, and 0.01% sodium azide), and stained with a secondary FITC-conjugated anti-IgG antibody (Biosource International, Camarillo, Calif.). The cells were fixed in 4% formaldehyde prior to flow cytometry analysis. The negative control consisted of T2 cells without peptide. The positive control consisted of T2 cells loaded with the Flu matrix peptide, […]. Flow cytometric analysis was done using a FACScan flow cytometer (Becton-Dickinson). Experimental results are depicted as X-Fold increase=(Mean Fluorescent Intensity of T2 cells loaded with peptide/Mean Fluorescent Intensity of T2 cells with no peptide).

Row | Binder | HLA-A2.1 Binding (X-Fold increase of MFI) [fold]
1 | AGYLMELCV (Synthesized by F-moc chemistry, with leucine at positions 4 and 7; also called P1) [Cyclin B1 peptide from the tumor, SEQ ID NO: 1 (AGYLMELCV)] | 1.6
2 | AGYLMELCM (Synthesized by F-moc chemistry, with leucine at positions 4 and 7; also called P2) [Cyclin B1 peptide from the tumor, SEQ ID NO: 2 (AGYLMELCM)] | 1.48
3 | AGYLMELCMA (Synthesized by F-moc chemistry, with leucine at positions 4 and 7) [Cyclin B1 peptide from the tumor, SEQ ID NO: 5 (AGYLMELCMA)] | 1.58
4 | AGYLMELCFA (Synthesized by F-moc chemistry, with leucine at positions 4 and 7) [Cyclin B1 peptide from the tumor, SEQ ID NO: 6 (AGYLMELCFA)] | 2.08
5 | AKYLMELTM (also called HeLa-derived cyclin B1 peptide) [Human cyclin B1 peptide from the database, SEQ ID NO: 7 (AKYLMELTM)] | 2.28

Next, values leading:

Row | HLA-A2.1 Binding (X-Fold increase of MFI) [fold] | Binder
6 | 1.42 | AGYLMELCF (Synthesized by F-moc chemistry, with leucine at positions 4 and 7; also called P3) [Cyclin B1 peptide from the tumor, SEQ ID NO: 3 (AGYLMELCF)]
7 | 1.61 | AGYLMELCC (also called P4) [Cyclin B1 peptide from the tumor, SEQ ID NO: 4 (AGYLMELCC)]
8 | 2.25 | AKYLMELTML (also called HeLa-derived cyclin B1 peptide) [Human cyclin B1 peptide from the database, SEQ ID NO: 8 (AKYLMELTML)]
